Test results taken from patent US20230235058A1 (OXFORD UNIVERSITY INNOVATION, published 2023).
Residue numbers refer to the chain shown, from its start. In names and notes the source's numbering stands.

B1: 7A1 (antibody, IgG1, V domains shown)
VH: QVQLQQSGPELVKPGASVKISCKASGYAFSSSWMNWVKQRPGKGLEWIGRIYPGDGDTNYNGKFKGKATLTADKSSSTAYMQLSSLTSEDSAVYFCARRGYGYLAYWGQGTLVTVSA
VL: DIVMTQSHKFMSTSVGDRVSITCKASQDVSTAVAWYQQKPGQSPKLLIYSASYRYTGVPDRFTGSGSGTDFTFTISSVQAEDLAVYYCQQHYSTPWTFGGGTKLEIK
notes: mIgG1
B2: 15C6 (antibody, IgG1, V domains shown)
VH: B1 VH
VL: B1 VL with W96Y
notes: mIgG1
B3: 21C7 (antibody, IgG1, V domains shown)
VH: QIQLQQSGPELVKPGASVKISCKASGYAFSSSWMNWVKKRPGKGLEWIGRIYPGDGDANYNGKFKGKATLTADKSSSTAYMQLSSLTSEDSAVYFCAGEGHYYGSGYRWYLDVWGTGTTVTVSS
VL: DIQMTQSPASLSVSVGETVTITCRASENIYSNLAWYQQKQGKSPQLLVYAATNLADGVPSRFSGSGSGTQYSLKINSLQSEDFGSYYCQHFRGAPFTFGSGTKLEIK
notes: mIgG1
B4: 12F11 (antibody, IgG1, V domains shown)
VH: EVQLQQSGPELVKPGASVKISCKASGYTFTDYYMNWVKQSHGKSLEWIGDINPNNGGTSYNQKFKGKATLTVDKSSSTAYMELRSLTSEDSAVYYCARWRQLRSDYWGQGTTLTVSS
VL: DIQMTQSPASQSASLGESVTITCLASQTIGTWLAWYQQKPGKSPQLLIYAATSLADGVPSRFSGSGSGTKFSFKISSLQAEDFVSYYCQQLYSTPLTFGAGTKLELK
notes: mIgG1
B5: 15B6 (antibody, IgG1, V domains shown)
VH: QVQLQQPGAELVKPGASVKLSCKASGYTFTSYWMHWVKQRPGQGLEWIGMIHPNSGSTNYNEKFKSKATLTVDKSSSTAYMQLSSLTSEDSAVYYCARKRGGLGDYWGQGTSVTVSS
VL: DIVLTQSPASLAVSLGQRATISCRASKSVSTSGYSYMHWYQQKPGQPPKLLIYLASNLESGVPARFSGSGSGTDFTLNIHPVEEEDAATYYCQHSRELPYTFGGGTKLEIK
B6: 11.5.1 D265A (antibody, V domains shown)
VH: EVQLQESGPSLVKPSQTLSLTCSVTGDSITSAYWNWIRKFPGNKLEYMGYISYSGSTYFNPSLKSRISITRNTSKNQYYLQLNSVTTEDTATYYCARSHYYGYYFDYWGHGTTLTVSS
VL: DIVLTQSPASLAVSLGQRATISCRASETIDSYGDSLMHWYQQKAGQPPKLLIYRASNLESGIPARFSGSGSRTDFTLTINPVEADDVATYYCQQTDEDPYTFGGGTKLEIK
B7: 3A9 (antibody, IgG1, V domains shown)
VH: QVQLKQSGAELVRPGASVKLSCKASGYTFTDYYINWVKQRPGQGLEWIARIYPGSGNTYYNEKFKGKATLTAEKSSSTAYMQLSSLTSEDSAVYFCARGYGNSDYWGQGTTLTVSS
VL: DILLTQSPAILSVSPGERVSFSCRASQSIGTRIHWYQQRTNGSPRLLIKYASESISGIPSRFSGSGSGTDFTLSINSVESEDIADYYCQQSNSWPYTFGGGTKLEIK
notes: mIgG1
B8: 831 (antibody, IgG1, V domains shown)
VH: DVQLQESGPDLVKPSQSLSVTCTVTGYSITSGYSWHWIRQFPGNKLEWMGYIHYSGSTNYNPSLKSRISITRDTSKNQFFLQLSSVTTEDTATYYCASGPHRYDGVWFAYWGQGTLVTVSS
VL: EIVLTQSPTTMAASPGEKITITCSASSSISSNYLHWYQQKPGFSPKLLIYRTSNLASGVPARFSGSGSGTSYSLTIGTMEAEDVATYYCQQGTNIPLTFGAGTKLEIK
B9: 4H4 (antibody, IgG1, V domains shown)
VH: QVQLQQSGAELARPGASVKLSCKASGYTFTSYGISWVKQRTGQGLEWIGEIYPRSGNTYYNEKFKGKATLTADKSSSTAYMELRSLTSEDSAVYFCARRRGAGDGFDYWGQGTTLTVSS
VL: DIQMTQTTSSLSASLGDRVTISCSASQGISNYLNWYQQKPDGTVKLLIYYTSSLHSGVPSRFSGSGSGTDYSLTISNLEPEDIATYYCQQYSKLPFTFGSGTKLEIK
notes: mIgG1
B10: 10B1 (antibody, IgG1, V domains shown)
VH: B9 VH with R99N, R100Y, A102S, G103S, D104Y, G105P, D107A, T114L, L115V, S119A
VL: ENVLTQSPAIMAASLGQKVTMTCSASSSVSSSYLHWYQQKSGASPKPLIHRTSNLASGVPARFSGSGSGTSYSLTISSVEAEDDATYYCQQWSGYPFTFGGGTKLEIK
B11: 16E1 (antibody, IgG1, V domains shown)
VH: B9 VH with R99G, R100Y, A102S, G103S, D104Y, D107A, T114L, L115V, S119A
VL: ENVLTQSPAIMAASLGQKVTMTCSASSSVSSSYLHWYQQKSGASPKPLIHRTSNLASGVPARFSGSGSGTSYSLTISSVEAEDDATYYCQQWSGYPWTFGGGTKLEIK
B12: 4B1 (antibody, IgG1, V domains shown)
VH: B9 VH with K19R, I34L, S35I, V37L, N57S, K63W, S77N, Y80F, A102T, T114I
VL: B9 VL with S92I, K93E
notes: mIgG1
B13: 8B4 (antibody, IgG1, V domains shown)
VH: B9 VH with S21P, N57T, R100I, G101S, A102S, D104S, F106V
VL: B9 VL with K93E, F96W, S100G
notes: mIgG1
B14: 4D5 (antibody, IgG1, V domains shown)
VH: QIQLVQSGPELKKPGETVKISCKASGYTFTTYGVSWVKQAPGKVLKWMGWINTYSGVPTYADDFKGRFAFSLETSASTAYLQISNLKNEDTATYFCAPVTTILHWYFDVWGTGTTVTVSS
VL: DIQMTQSPSSLSASLGERVSLTCRASQEISGYLSWLQQKPDGTIKRLIYAASTLDSGVPKRFRGSRSGSDYSLTISSLESEDFADYYCLQYASYPFTFGSGTKLEIK
notes: mIgG1
B15: 16F10 (antibody, IgG1, V domains shown)
VH: DVQLQESGPGLVKPSQSLSLTCSVTGYSITSGYYWNWIRQFPGNKLEWMGYISYDGSNNYNPSLKNRISITRDTSKNQFFLKLNSVTTEDTATYYCASIYGNYYAMDYWGQGTSVTVSS
VL: QIVLTQSPAIMSASPGEKVTMTCSASSSVSYMHWYQQKSGTSPKRWIYDTSKLASGVPARFSGSGSGTSYSLTISSMEAEDAATYYCQQWSSNPPTFGSGTKLEIK
notes: mIgG1

Biological target: full length human BTLA expressed on cells (human, UniProt Q7Z6A9 31-289)
Test: cell-based or functional assay
Wherever AntiCD3/CD28 (CD4 T cell proliferation) repeat 1 is given: test concentration or dose not given here.
Wherever AntiCD3/CD28 (CD4 T cell proliferation) repeat 2 is given: test concentration or dose not given here.
Wherever AntiCD3/CD28 (CD69+ CD4 T cells) repeat 1 is given: test concentration or dose not given here.
Wherever AntiCD3/CD28 (CD69+ CD4 T cells) repeat 2 is given: test concentration or dose not given here.
Wherever MLR (CD4 T cell proliferation) repeat 1 is given: test concentration or dose not given here.
Wherever MLR (CD4 T cell proliferation) repeat 2 is given: test concentration or dose not given here.
Wherever T cell reporter (NFκB signaling) is given: test concentration or dose not given here.

Row | T cell reporter (NFκB signaling) [% inhibition] | Binder
1 | 20 | B1
2 | 9 | B2
3 | 23 | B3
4 | 30 | B4
5 | 21 | B5
6 | -13 | B6
7 | 27 | B7
8 | 24 | B8
9 | 25 | B9
10 | 27 | B10
11 | 22 | B11
12 | 23 | B12
13 | 24 | B13

Biological target: chimeric BTLA of humanised-BTLA mice (human extracellular region, murine transmembrane and signaling … (human; mouse, UniProt Q7TSA3 184-306, limits assumed)
Test: cell-based or functional assay

chimeric BTLA of humanised-BTLA mice (human extracellular region, murine transmembrane and signaling …, sequence (Q7TSA3 other isoform, or with tags, fused parts or gaps mutant limits assumed): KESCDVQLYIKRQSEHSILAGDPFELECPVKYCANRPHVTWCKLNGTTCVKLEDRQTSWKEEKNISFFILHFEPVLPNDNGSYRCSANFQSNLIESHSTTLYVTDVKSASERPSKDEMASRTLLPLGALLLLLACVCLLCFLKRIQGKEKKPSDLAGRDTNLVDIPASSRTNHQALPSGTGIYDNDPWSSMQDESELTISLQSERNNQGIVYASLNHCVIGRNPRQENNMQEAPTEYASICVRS

Row | AntiCD3/CD28 (CD4 T cell proliferation) repeat 1 [% inhibition] | AntiCD3/CD28 (CD4 T cell proliferation) repeat 2 [% inhibition] | AntiCD3/CD28 (CD69+ CD4 T cells) repeat 1 [% inhibition] | AntiCD3/CD28 (CD69+ CD4 T cells) repeat 2 [% inhibition] | MLR (CD4 T cell proliferation) repeat 1 [% inhibition] | MLR (CD4 T cell proliferation) repeat 2 [% inhibition] | Binder
14 | 14 | 17 | 28 | 38 | 23 | 29 | B1
15 | 2 | -2 | 12 | 19 | 19 | 8 | B2
16 | 10 | -4 | 39 | 35 | 8 | 17 | B3
17 | 5 | 9 | 30 | 40 | 28 | 23 | B4
18 | 9 | 16 | 13 | 20 | 7 | 13 | B5
19 | -3 | -9 | -47 | -26 | -3 | 1 | B6
20 | 9 | 9 | 22 | 34 | 7 | 24 | B7
21 | 10 | 8 | 50 | 53 | 25 | 34 | B8
22 | 14 | 22 | 43 | 52 | 10 | 17 | B9
23 | 8 | 14 | 24 | 36 | 16 | 25 | B10
24 | 4 | 8 | 9 | 23 | 33 | 8 | B11
25 | 14 | 18 | 47 | 41 | 33 | 30 | B12
26 | 20 | 4 | 51 | 47 | 33 | 23 | B13

Biological target: T1, monomeric soluble human BTLA extracellular domain (BTLA K31-R151) (human, UniProt Q7Z6A9 31-151)
T1 construct: also called hBTLA; monomeric BTLA
Test: SPR 37C, mAb captured, BTLA ECD analyte;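 further: Anti-BTLA mouse antibodies captured on a sensor chip via polyclonal anti-mouse IgG, isotype control antibody in reference channel, rates fitted after reference and blank subtraction to derive Kd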
Procedure: Mouse antibody capture kit (GE Healthcare) was used to coat a Series S CMS Sensor Chip (GE Healthcare) with polyclonal anti-mouse IgG. Anti-BTLA antibody was then captured onto the biosensor surface and a negative control antibody (clone Mopc21; Biolegend) captured in the reference channel. […] Association and dissociation rates were fitted using BiaEvaluation Software (GE Healthcare) after reference and blank subtractions, and dissociation constants were calculated (FIG. 1b).

Row | Kd [nM] | koff [s⁻¹] | kon [M⁻¹ s⁻¹] | Binder
27 | 40.2 | 0.0166 | 413000 | B1
28 | 718 | 0.138 | 193000 | B2
29 | 43.6 | 0.0406 | 930000 | B3
30 | 2930 | 0.79 | 270000 | B14
31 | 722 | 0.155 | 215000 | B4
32 | 4010 | 1.63 | 406000 | B7
33 | 1710 | 0.347 | 203000 | B9
34 | 3.21 | 0.00185 | 577000 | B12
35 | 8.17 | 0.0044 | 538000 | B13
36 | 48.8 | 0.0283 | 581000 | B15
